The source of these data is PMC4289617 (Journal of medicinal chemistry, 2010).

Where two headings read alike, the source gives them in different places. Me3 = trimethyl-lysine, K(Me3)

The target in test [1] is T1, WDR5Δ23 (WD repeat domain 5, residues 24–334) (human, UniProt P61964 24-334). Briefly: fluorescence polarisation. On the technique in general: Polarisation of emitted light reports the rotation of a fluorescent probe.
For test [2], the target named is T1, WDR5Δ23 (WD repeat domain 5, residues …). Nature of the test: fluorescence polarisation. The source holds these as a separate data set.

B1: Ac-6mer (peptide)
peptide: Ac-ARAEVH-NH2
Regarding B1, the inhibitory constant (Ki) in test [1] was 90 nM.

B2: Ac-9mer (Ac-10mer without Ala1) (peptide)
peptide: Ac-RAEVHLRKS-NH2
B2: in test [1], the IC50 was 29 µM and the inhibitory constant (Ki) turned out to be 6300 nM.

B3: Ac-10mer (Ac-ARAEVHLRKS-NH2) (peptide)
peptide: Ac-ARAEVHLRKS-NH2
As for B3, the Ki in test [1] turned out to be 3 nM.

B4: H3-10mer-K4Me3 (H2N-ARTK(Me3)QTARKS-NH2) (peptide)
peptide: H-ARTK(Me3)QTARKS-NH2
In test [2], B4 returned a half-maximal inhibitory concentration (IC50) of 73 µM and an inhibition constant (Ki) of 15.6 µM.

B5: Ac-H3-10mer (Ac-ARTKQTARKS-NH2) (peptide)
peptide: Ac-ARTKQTARKS-NH2
In turn, B5 gave a Ki in test [2] below 0.001 µM.

For orientation: Ki means a dissociation constant, usually derived from enzyme kinetics or from competition with a known ligand. One may read the IC50 as the concentration at which inhibition is half-maximal.
